Test results from patent US20190367631A1 (Regeneron, published 2019).

T1: monkey MSR1 extracellular domain expressed with a N-terminal hexahistidine-myc-myc tag (HMM-mfMSR1) (monkey (Macaca fascicularis))
T1 chain: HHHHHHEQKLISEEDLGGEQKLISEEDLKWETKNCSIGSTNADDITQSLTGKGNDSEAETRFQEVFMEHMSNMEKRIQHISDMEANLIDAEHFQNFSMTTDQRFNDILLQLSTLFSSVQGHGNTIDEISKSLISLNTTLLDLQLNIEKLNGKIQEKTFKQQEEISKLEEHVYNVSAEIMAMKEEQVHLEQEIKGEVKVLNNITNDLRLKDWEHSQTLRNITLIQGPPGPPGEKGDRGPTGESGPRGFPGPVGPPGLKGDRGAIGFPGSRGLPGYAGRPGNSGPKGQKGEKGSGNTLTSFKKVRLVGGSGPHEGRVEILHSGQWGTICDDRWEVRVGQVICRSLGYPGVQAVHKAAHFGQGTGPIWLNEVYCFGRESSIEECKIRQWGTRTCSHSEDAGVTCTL

T2: human MSR1 extracellular domain expressed with a N-terminal nonahistidine tag (His9-hMSR1); R&D Systems, Cat … (human, UniProt P21757 77-451)
T2 construct: extracellular domain; also called His-hMSR1; 9xHis-hMSR1; not shown: N-terminal nonahistidine tag
T2 sequence (looked up): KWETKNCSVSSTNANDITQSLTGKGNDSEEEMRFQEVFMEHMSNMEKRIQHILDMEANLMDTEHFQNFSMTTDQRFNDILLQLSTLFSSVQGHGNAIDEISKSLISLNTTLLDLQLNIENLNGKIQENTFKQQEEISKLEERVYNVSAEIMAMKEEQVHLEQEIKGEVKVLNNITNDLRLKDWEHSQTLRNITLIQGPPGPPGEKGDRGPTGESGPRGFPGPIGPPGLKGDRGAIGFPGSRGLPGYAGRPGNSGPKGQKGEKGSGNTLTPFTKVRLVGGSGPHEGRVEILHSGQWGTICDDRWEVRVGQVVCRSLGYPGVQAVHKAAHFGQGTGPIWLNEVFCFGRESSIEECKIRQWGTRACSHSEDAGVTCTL

T3: human MSR1 extracellular domain expressed with a N-terminal nonahistidine tag (human, UniProt P21757 77-451)
T3 construct: extracellular domain; also called His9-hMSR1; His-hMSR1
T3 sequence: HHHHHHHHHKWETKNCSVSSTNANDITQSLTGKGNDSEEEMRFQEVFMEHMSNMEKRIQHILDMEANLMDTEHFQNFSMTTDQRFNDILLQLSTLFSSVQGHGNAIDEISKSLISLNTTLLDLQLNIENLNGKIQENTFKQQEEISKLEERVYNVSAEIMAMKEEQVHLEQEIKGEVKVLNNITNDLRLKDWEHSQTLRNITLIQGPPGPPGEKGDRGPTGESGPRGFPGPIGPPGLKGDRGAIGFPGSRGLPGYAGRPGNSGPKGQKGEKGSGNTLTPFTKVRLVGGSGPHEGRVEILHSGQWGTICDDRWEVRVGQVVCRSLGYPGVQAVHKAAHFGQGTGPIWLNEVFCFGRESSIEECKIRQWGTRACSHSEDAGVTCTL

T4: mouse MSR1 extracellular domain expressed with a N-terminal nonahistidine tag (His9-mMSR1); R&D Systems, Cat … (mouse, UniProt P30204 79-458)
T4 construct: extracellular domain; not shown: N-terminal nonahistidine tag
T4 sequence (looked up): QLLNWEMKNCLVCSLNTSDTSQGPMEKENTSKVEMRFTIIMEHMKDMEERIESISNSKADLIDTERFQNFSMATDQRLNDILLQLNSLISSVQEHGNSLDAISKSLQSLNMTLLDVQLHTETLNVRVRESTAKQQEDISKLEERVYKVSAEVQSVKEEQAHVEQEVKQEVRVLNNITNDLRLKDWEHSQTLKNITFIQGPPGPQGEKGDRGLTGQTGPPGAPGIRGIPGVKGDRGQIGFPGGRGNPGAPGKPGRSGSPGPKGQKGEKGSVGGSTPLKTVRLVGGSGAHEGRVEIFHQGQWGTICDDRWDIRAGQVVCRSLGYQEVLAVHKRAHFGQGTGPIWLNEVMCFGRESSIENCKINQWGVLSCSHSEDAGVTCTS

B1: H1H27766P-N297Q (antibody, V domains shown)
VH: EVQLVESGGGLVQPGGSLRLSCAASGFTFSSFAMSWVRQAPGKELEWVSSISGRGGSTYYADSVRGRFTISRDNSKITLYLQMNSLRAEDTAVYYCAKDIVFRYTSSAYWYFDLWGRGTLVTVSS
VL: not shown
notes: Human IgG1 Fc with N297Q; tied by the numerical identifier; also called H1H27766P2-N297Q; H1H27766P2
B2: H1H27759P-N297Q (antibody, V domains shown)
VH: EVQLVESGGGFVQPGGSLRLSCAASGFTFSSYAMSWVRQAPGKGLEWVSAISGTGSNTYYADSVKGRFTISRDNSKNTLYLQMNSLRAEDTAVYYCAKDRVTTVTYYFDYWGQGTLVTVSS
VL: not shown
notes: Human IgG1 Fc with N297Q; tied by the numerical identifier; also called H1H27759P2-N297Q; H1xH27759P2
B3: H1H27756P-N297Q (antibody, V domains shown)
VH: QVQLVESGGGVVQPGRSLRLSCAASGFTFSNYDMHWVRQAPGKGLEWMAVISYDGINKYYADSVKGRFTISRDNSKNTLYLQMNSLRAEDTAVYYCAKGTYSWYFDLWGRGTLVTVSS
VL: not shown
notes: Human IgG1 Fc with N297Q point mutation
B4: H1H27739P-N297Q (antibody, V domains shown)
VH: EVQLVESGGGLVQPGGSLRLSCTASGFTFSSYAMSWVRQAPGKGLEWVSAISGTGSSTYFTDSVKGRFAISRDNSKNTLYLQMNSLRAEDTAVYYCAKDGEWLSTVTLFDYWGQGTLVTVSS
VL: EIVMTQSPATLSVSPGERATLSCRASQSVSSNLAWYQQKPGQAPRLLIYGASTRATGIPARFSGSGSGTDFTLTISSLQSEDFALYYCQQYFIWPPHPTFGPGTKVDIKR
notes: as for B3
B5: H1H27762P-N297Q (antibody, V domains shown)
VH: QVQLVQSGAEVKKPGSSVKVSCKASGGTFSRYDISWVRQAPGQGLEWMGGIIPIFGTSNYAQKFQGRVTITTDESTSTVYMELSSLRSEDTAVYYCARGGRYGWFDPWGQGTLVTVSS
VL: not shown
notes: Human IgG1 Fc with N297Q; tied by the numerical identifier; also called H1H27762P2-N297Q; H1H27762P2
B6: H1H27760P-N297Q (antibody, V domains shown)
VH: EVQLVESGGGLVQPGRSLRLSCAASGFTFDAYAMHWVRQAPGKGLEWVSGISWNSGSIGYADSVKGRFTISRDNAKNSLYLQMNSLREEDTALYYCAKDKILELYYYGMDVWGQGTTVTVSS
VL: not shown
notes: Human IgG1 Fc with N297Q; tied by the numerical identifier; also called H1H27760P2-N297Q; H1H27760P2
B7: H1H27732P-N297Q (antibody, V domains shown)
VH: QLQLQESGPGLVKPSETLSLTCTVSGGSISSSTYYWGWIRQPPGKGLEWIGSFYYSGSTYYNPSLKSRVTISVGTSKNQFSLKLSSVTAADTAVYFCARGGLLGRPFVIWGQGTMVTVSS
VL: DIQMTQSPSSLSASVGDRVTITCRASQGIRNDLGWYQQKPGKAPKRLIYAASSLQSGVPSRFSGSGSGTEFTLTISSLQPEDFATYYCLQHNSYPLTFGGGTKVEIKR
notes: Human IgG1 Fc with N297Q
B8: H1H27766P2-N297Q (antibody, V domains shown)
VH: B1 VH
VL: not shown
notes: Human IgG1 Fc with N297Q; also called H1H27766P-N297Q
B9: H1H27731P-N297Q (antibody, V domains shown)
VH: QLQLQESGPGLVKPSETLSLTCTVSGGSISRISYYWGWIRQPPGKGLEWIGSIYDSGSTYYNPSLKSRVTISIDTSKNQFSLKLSSVTAADTAVYYCVRYSSSSAFAFDYWGQGTLVTVSS
VL: DIQMTQSPSSVSASVGDRVTITCRASQGISSWLAWYQQKPGKAPKLLIYAASSLQSGVPSRFSGSGSGTDFTLTISSLQPEDFATYYCQQANSFPFTFGPGTKVDIKR
notes: Human IgG1 Fc with N297Q
B10: H1H27773P2-N297Q (antibody, human IgG1, V domains shown)
VH: EVQLVESGGGLVQPGGSLRLSCAASGFTFSSYAMNWVRQAPGKGLEWVSAISGSGDSTYYADSVKGRFTISRDNSRTTLSLQLNSLRAEDTAVYYCAKDRLLWFGELGSPFHYWGQGTLVTVSS
VL: not shown
notes: Human IgG1 Fc with N297Q; also called H1H27773P-N297Q
B11: H1H27729P-N297Q (antibody, V domains shown)
VH: QVQLVESGGGLVKPGGSLRLSCAASGFIFSDYYMSWIRQAPGKGLEWVSYISSSGTTIYGDSVKGRFTMSRDNAKNSLYLQMNSLRAEDTAVYYCARNYALFDYWGQGTLVTVSS
VL: DIQMTQSPSSLSASVGDRVTITCQASQDISKYLNWYQQKPGKAPKLLIYYTSNLETGVPSRFSGSGSGTDFTFTISSLQPEDIATYYCHQSDYLPFTFGPGTKVDIKR
notes: Human IgG1 Fc with N297Q

Molecular target: T1, monkey MSR1 extracellular domain …
Experiment: SPR Biacore, 37 C, antibody captured
Method: (§1) Binding affinities and kinetic constants of human anti-MSR1 antibodies for different MSR1 reagents were determined by real-time surface plasmon resonance (Biacore 4000). All binding studies were performed in 10 mM HEPES, 150 mM NaCl, 3 mM EDTA, and 0.05% v/v Surfactant Tween-20, pH 7.4 (HBS-ET) running buffer at 25° C. and 37° C.
(§2) The association rate (kₐ) and dissociation rate (kd) were determined by fitting the real-time binding sensorgrams to a 1:1 binding model with mass transport limitation using Scrubber 2.0c curve-fitting software. Binding dissociation equilibrium constant (KD) and dissociative half-life (t½) were calculated from the kinetic rates as:
A Kd of 1.72 nM, a koff of 0.000589 s⁻¹ and a kon of 343000 M⁻¹ s⁻¹ were found for B1 in this work. The t½ was 20 min. A Kd of 1.28 nM, a koff of 0.00188 s⁻¹ and a kon of 1.46e+06 M⁻¹ s⁻¹ were found for B2 in this work. The t½ was 6 min. A Kd of 3.97 nM and a t½ of 4 min were found for B3 in this work. A Kd of 0.374 nM, a koff of 0.000842 s⁻¹ and a kon of 2.25e+06 M⁻¹ s⁻¹ were found for B4 in this work. It also gave a t½ of 14 min. A Kd of 0.698 nM, a koff of 0.00197 s⁻¹ and a kon of 2.82e+06 M⁻¹ s⁻¹ were found for B5 in this work. It also gave a t½ of 6 min. A t½ of 7 min was found for B6 in this work.

What follows are binders tested against T2, human MSR1 extracellular domain … (assay: SPR Biacore, 37 C, antibody captured).
Method: as §1, §2
A Kd of 0.227 nM, a koff of 7.72e-05 s⁻¹ and a kon of 340000 M⁻¹ s⁻¹ were found for B1 in this work. For the same binder, the t½ was 150 min. A Kd of 2.24 nM, a koff of 0.0023 s⁻¹ and a kon of 1.03e+06 M⁻¹ s⁻¹ were found for B2 in this work. The t½ was 5 min. A Kd of 1.16 nM and a t½ of 15 min were found for B3 in this work. A Kd of 3.72 nM, a koff of 0.00288 s⁻¹ and a kon of 776000 M⁻¹ s⁻¹ were found for B4 in this work. For the same binder, the t½ was 4 min. A Kd of 0.64 nM, a koff of 0.00196 s⁻¹ and a kon of 3.06e+06 M⁻¹ s⁻¹ were found for B5 in this work. It also gave a t½ of 6 min. A Kd of 1.74 nM and a t½ of 6 min were found for B6 in this work.

These binders were tested against T3, human MSR1 extracellular domain … (assay: competition ELISA, plate-coated His9-hMSR1; 1 µM antibody, competitor ligand 10 nM Ox-LDL).
Method: (§3) Buffer alone was also added to wells on each coat. […] This assay was conducted in four different assay runs.
(§4) Data analysis was performed using a sigmoidal dose-response model within Prism™ software (GraphPad).
In the case of B7, the “% Blocking” value is reported as -60%. With B8 the “% Blocking” value was 54%. In the case of B9, the “% Blocking” value is reported as -1%. With B10 the “% Blocking” value was 2%. B11 was tested, and the “% Blocking” value was 36%.

Molecular target: T1, monkey MSR1 extracellular domain …
Experiment: SPR Biacore, 25 C, antibody captured;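 further: rates from 1:1 fit with mass transport limitation of real-time sensorgrams, HEPES-buffered saline with EDTA and Tween-20 at pH 7.4, KD and t½ derived from the kinetic rates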
Method: as §1, §2
A Kd of 0.506 nM, a koff of 7.94e-05 s⁻¹ and a kon of 157000 M⁻¹ s⁻¹ were found for B1 in this work. The t½ was 145 min. A Kd of 2.2 nM, a koff of 0.000919 s⁻¹ and a kon of 417000 M⁻¹ s⁻¹ were found for B2 in this work. The t½ was 13 min. A Kd of 6.81 nM and a t½ of 5 min were found for B3 in this work. A Kd of 0.41 nM, a koff of 0.000144 s⁻¹ and a kon of 352000 M⁻¹ s⁻¹ were found for B4 in this work. The t½ was 80 min. A Kd of 1.59 nM, a koff of 0.00199 s⁻¹ and a kon of 1.25e+06 M⁻¹ s⁻¹ were found for B5 in this work. It also gave a t½ of 6 min. A Kd of 1.93 nM and a t½ of 16 min were found for B6 in this work.

The binders below were run against T2, human MSR1 extracellular domain … (assay: SPR Biacore, 25 C, antibody captured;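 further: rates from 1:1 fit with mass transport limitation of real-time sensorgrams, HEPES-buffered saline with EDTA and Tween-20 at pH 7.4, KD and t½ derived from the kinetic rates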).
Method: as §1, §2
A Kd of 0.0796 nM, a koff of 1.86e-05 s⁻¹ and a kon of 234000 M⁻¹ s⁻¹ were found for B1 in this work. The t½ was 620 min. A Kd of 2.03 nM, a koff of 0.00122 s⁻¹ and a kon of 599000 M⁻¹ s⁻¹ were found for B2 in this work. The t½ was 9 min. A Kd of 0.406 nM and a t½ of 94 min were found for B3 in this work. A Kd of 2.74 nM, a koff of 0.00103 s⁻¹ and a kon of 375000 M⁻¹ s⁻¹ were found for B4 in this work. It also gave a t½ of 11 min. A Kd of 1.85 nM, a koff of 0.00183 s⁻¹ and a kon of 989000 M⁻¹ s⁻¹ were found for B5 in this work. It also gave a t½ of 6 min. A Kd of 2 nM and a t½ of 13 min were found for B6 in this work.

What follows are binders tested against T3, human MSR1 extracellular domain … (assay: competition ELISA, plate-coated His9-hMSR1; 300 nM antibody, competitor ligand biot-AGE-BSA).
Method: as §3, §4
With B7 the “% Blocking” value was -9%. With B8 the “% Blocking” value was 27%. With B9 the “% Blocking” value was 4%. B10 was tested, and the “% Blocking” value was 1%. B11 was tested, and the “% Blocking” value was 15%.

The binders below were run against T3, human MSR1 extracellular domain … (assay: competition ELISA, plate-coated His9-hMSR1; 100 nM antibody, competitor ligand Ac-LDL).
Method: as §3, §4
For B7, the “% Blocking” value was -61%. In the case of B8, the “% Blocking” value is reported as 52%. In the case of B9, the “% Blocking” value is reported as -41%. B11 was tested, and the “% Blocking” value was 8%.

These binders were tested against T4, mouse MSR1 extracellular domain … (assay: BLI Octet, 25 C, antibody captured).
B1: no binding (tested: 50 nM). B2: no binding (tested: 50 nM). B3: no binding (tested: 50 nM). B4: no binding (tested: 50 nM). B5: no binding (tested: 50 nM). B6: no binding (tested: 50 nM).
